{
  "source": "paper PMC13503762",
  "about": "(Nature Communications, 2026)",
  "target": "SARS-CoV-2 M protein (purified, in LMNG/CHS detergent) (SARS-CoV-2, UniProt P0DTC5)",
  "experiment": "cryo-EM structure",
  "conditions": "both partners purified",
  "data": [
    {"binder": "long conformation Fab (lcFab) (Fab, V domains shown, also called Fab targeting M_(long)) VH: EVQLQQSGAELVRPGSSVKISCKGSGYVFSNYWMNWVKQRPGQGLEWIGQIYPGDGDTNYNGKFKGKATLTADKSSSTAYMQLSSLTSEDSAVYFCASGYLGENYVMDFWGQGTSVTVSS VL: DIVLTQSPASLTVSLGQRATISCRASESVDSFGNSFMHWYQQKPGQPPKLLIYRASNLESGIPARFSGSGSRTDFTLTINPVEADDVATYYCQQSSEDPYTFGGGTKLEIK", "values": [
      {"measurement": "binding result", "value": "binds"}
    ]}
  ]
}
